Results published in patent US20210230292A1 (DIATHEVA S R L, published 2021).
One block for each binder: values may come before it.

Target: T1, human CD99ecd/GST (human, UniProt P14209 23-122)
T1 construct: Expressed in E. coli BL21(DE3), purified on Glutathione Sepharose; also called CD99ecd/GST antigen; recombinant CD99; not shown: glutathione-S-transferase as encoded by vector pGEX-2T (GE Healthcare); CD99ecd fused downstream of it through the BamHI
T1 sequence: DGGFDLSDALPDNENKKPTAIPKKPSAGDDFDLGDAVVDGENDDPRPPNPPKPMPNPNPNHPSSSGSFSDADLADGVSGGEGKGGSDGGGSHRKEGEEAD
Test: competitive ELISA (Rath 1988), CD99ecd/GST coated and soluble CD99ecd/GST as inhibitor
Method: The binding affinity, expressed as the dissociation constant (kd) of scFv C7, C7dAbd, C7IgG4 and C7IgG1 for CD99, was determined by analysing the saturation of binding at equilibrium with a competitive ELISA assay according to the procedure described in Rath S 1988 with small variations. […] For this purpose, 96-well plates were sensitized by distributing 500 ng/well of CD99ecd/GST diluted in 0.5M carbonate buffer, pH 9.6, and incubating ON at 4° C. After 3 washes with PBS supplemented with 0.05% V/V of Tween20, the plates were blocked with a 1% W/V solution of BSA in PBS (PBSB), pH 7.4, for 60 min. at 37° C. After washing, the plates were incubated for 1 hour at 37° C. with serial dilutions of C7 (from 200 μg/ml to 0.03 μg/ml in triplicate) diluted in PBSB and dispensed (100 μl/well). The plates were incubated at 37° C. for 90 minutes. After washing a dilution of polyclonal anti-scFv diluted 1:500 in PBSB was dispensed, 100 μl/well, and incubated for 60 minutes at 37° C. […]
A competitive ELISA assay was then set up. […] The scFvC7 and C7 diabody signal was determined by dispensing, in a first step, a polyclonal anti-scFv antibody generated in rabbits immunized with scFvC7 and diluted 1:500 v/v in PBSB and subsequently with an anti-rabbit HRP diluted 1:1000 v/v. […]

Kd: 0.00586 µM
B1: C7IgG4 (antibody)
heavy: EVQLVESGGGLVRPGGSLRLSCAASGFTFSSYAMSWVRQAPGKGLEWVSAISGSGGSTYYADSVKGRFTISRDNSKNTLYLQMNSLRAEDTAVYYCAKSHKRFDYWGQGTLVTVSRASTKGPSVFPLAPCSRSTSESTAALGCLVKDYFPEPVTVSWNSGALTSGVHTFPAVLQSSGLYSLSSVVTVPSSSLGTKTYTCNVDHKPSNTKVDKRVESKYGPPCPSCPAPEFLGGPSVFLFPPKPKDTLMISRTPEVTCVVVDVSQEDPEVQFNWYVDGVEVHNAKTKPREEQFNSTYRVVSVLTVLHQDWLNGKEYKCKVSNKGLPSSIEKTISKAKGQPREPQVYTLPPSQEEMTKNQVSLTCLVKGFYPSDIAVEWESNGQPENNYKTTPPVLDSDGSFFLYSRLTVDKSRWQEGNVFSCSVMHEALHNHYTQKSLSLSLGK
light: SSELTQDPAVSVALGQTVRITCQGDSLRSYYASWYQQKPGQAPVLVIYGKNNRPSGIPDRFSGSSSGNTASLTITGAQAEDEADYYCNSSFPRTSSVVFGGGTKLTVLGQPKANPTVTLFPPSSEELQANKATLVCLISDFYPGAVTVAWKADGSPVKAGVETTKPSKQSNNKYAASSYLSLTPEQWKSHRSYSCQVTHEGSTVEKTVAPTECS
notes: VH and VL of scFvC7 fused to human IgG4 constant regions; produced in Expi293F cells; also called IgG4wt; C7IgG4 wt

Kd: 9 µM
B2: C7IgG1 (antibody)
heavy: not shown
light: B1 light
notes: VH and VL of scFvC7 fused to human IgG1 constant regions; produced in Expi293F cells
